Values of other authors, collected in paper PMC2866048.

Biological target: F-actin (Oryctolagus cuniculus) (UniProt P68135)

For drebrin (from UniProt Q16643), the Kd is given as 120 nM.
